Tests used:
[1] = target: FLAG-L4 (ribosomal protein L4) (Escherichia coli (expressed in BL21(DE3) rne131)) (UniProt P60723); experiment: competition; settings: EMSA: 30 C, 20 min, native 5% PAGE, ~2 ng RNA, 0.7-5.5 uM L4, buffer not given (cited method); footprinting: room temperature (25 C), RNase V1 in 1x RNA …
[2] = tested on: FLAG-L4 (ribosomal protein L4) (Escherichia coli (expressed in BL21(DE3) rne131)); experiment: EMSA; settings: EMSA: 30 C, 20 min, native 5% PAGE, ~2 ng RNA, 0.7-5.5 uM L4, buffer not given (cited method); footprinting: room temperature (25 C), RNase V1 in 1x RNA …

In the case of “GGGGCUUAACGUCGCGUAAAUUGUUUAACACUUUGCGUAACGUACACUGGGAUCGCUGAAUUAGAGAUCGGCGUCCUUUCAUUCUAUAUACUUUGGAGUUUUAAAAUGUCUCUAAGUACUGAAGCAACAGCUAAAAUCGUUUCUGAG [rpsO-UTR RNA]”, the binding [1] is reported as “no binding”.

With “tnaC-tnaA transcribed spacer RNA (gel shift)” the Kd [2] was 2100 nM.

In the case of “GGGGGCUUGUCGUAGUUGACAGCAGGUUCAAUCUGAACCUCAGUUAGCCGAAUUUGGCUACCUAACAAUGCUCCCAAUCGGGGAGCUACGUAAGAACGGUUACACUCUCCCAUCAAUCGUAAUGGGUCUGAGGAGUAAUCAUUUUCGUUUAUAAAAUAAUUGGAGCUCUGGUCUC [S10-UTR RNA]”, the binding [1] is reported as “binds”.
